One assay addresses T1, 5T4 (Homo sapiens, UniProt Q13641).
T1 sequence (Q13641 32-420): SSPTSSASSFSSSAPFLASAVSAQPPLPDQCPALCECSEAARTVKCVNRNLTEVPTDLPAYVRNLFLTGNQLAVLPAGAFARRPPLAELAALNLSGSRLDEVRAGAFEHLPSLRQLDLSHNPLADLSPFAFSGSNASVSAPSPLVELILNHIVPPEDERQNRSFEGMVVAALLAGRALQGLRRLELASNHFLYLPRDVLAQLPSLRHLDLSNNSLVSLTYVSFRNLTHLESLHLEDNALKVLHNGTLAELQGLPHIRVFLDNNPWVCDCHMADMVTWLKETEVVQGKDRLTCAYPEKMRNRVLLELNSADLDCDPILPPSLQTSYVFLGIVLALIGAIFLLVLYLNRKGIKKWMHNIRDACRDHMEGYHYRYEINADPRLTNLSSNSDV
The assay can be described thus: Non-overlapping epitope binding assay (SPR). As to conditions: mouse antibody captured, 5T4 injected, then humanized antibody. On the procedure: To examine epitope binding of anti-5T4 bispecific antibody-drug conjugate parental monospecific antibodies, surface plasmon resonance (SPR) binding experiments were performed using Biacore™ 8K systems (Cytiva™). HBS-EP+ buffer (10 mM HEPES, 150 mM NaCl, 3 mM EDTA and 0.05% v/v Surfactant P20) was used as running buffer. Anti-mouse IgG antibodies from the mouse antibody capture kit (Cytiva) were coupled in active flow cells on a CM5 sensor chip using an amine coupling kit (Cytiva), whereas the reference cell was left blank. As the first step, mouse monospecific antibody Ab1 or Ab2 was injected over both cells on all experimental channels. Second, test article 5T4 or buffer was injected over both cells on the corresponding channel. Third, humanized monospecific antibody Ab1 or Ab2, or buffer, was injected over both cells on all experimental channels. After each binding cycle, the sensor chip was regenerated with 10 mM Glycine-HCl pH1.7. SPR signals (RU) were recorded in real-time and plotted against time to generate binding sensorgrams. Sensorgrams from multiple channels were overlaid using Biacore 8K Evaluation Software.
To confirm the non-overlapping epitope binding of the select monospecific antibody Nos. 1 and 2, a surface plasmon resonance (SPR) technology-based binding assay was performed. […]

The target in assay [1] is T2, recombinant human 5T4 protein (human, UniProt Q13641 32-355).
T2 construct: The ELISA protein was bought (Sino biologics and Biorbyt); also called recombinant 5T4 protein; trophoblast glycoprotein (TPBG)
T2 sequence: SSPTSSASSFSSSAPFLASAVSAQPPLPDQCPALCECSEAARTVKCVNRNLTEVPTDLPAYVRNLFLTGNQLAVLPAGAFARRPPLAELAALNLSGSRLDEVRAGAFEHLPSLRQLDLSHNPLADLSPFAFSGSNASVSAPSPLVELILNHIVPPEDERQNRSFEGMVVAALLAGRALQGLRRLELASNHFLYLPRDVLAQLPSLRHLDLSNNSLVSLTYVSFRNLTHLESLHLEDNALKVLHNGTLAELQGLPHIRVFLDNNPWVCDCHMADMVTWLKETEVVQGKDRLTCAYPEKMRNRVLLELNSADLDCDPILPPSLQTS
The assay can be described thus: optimized SPR (Biacore 8K), antibody captured on Protein A chip, recombinant 5T4 as analyte 0.02 to 5 µg/mL, 1:1 model. On the procedure: (§1) SPR kinetic experiments were performed on Biacore 8K systems (GE healthcare) with HBS-EP+ as running buffer. […] Capture level for each antibody was maintained between 50-100 RU. The final analyte binding level at the highest concentration was maintained below 50 RU. […] After each binding cycle, the sensor chip was regenerated with glycine solution (pH 1.5). The resulting sensorgrams were fitted with a one-to-one binding model to extract kinetic constants using Biacore 8K Evaluation Software.

Assay [2] concerns the target T2, recombinant human 5T4 protein. Nature of the assay: SPR (Biacore 8K, optimized assay): antibody captured on a protein A chip, recombinant 5T4 injected at 0.02-5 µg/mL, one-to-one binding model. On the procedure: as §1
(SPR reads the build-up and loss of mass on a sensor chip optically.)

A further assay has as its target FcγRI (Abcam) (UniProt P12314). The assay can be described thus: SPR (Biacore 8K), antibody captured on Protein A chip, Fc receptor as analyte, 1:1 model.
Another assay addresses FcγRIIIa (158V) (UniProt P08637). Described as above.
The target in assay [3] is T2, recombinant human 5T4 protein. The assay can be described thus: SPR (Biacore 8K), antibody captured on Protein A chip, 5T4 as analyte 0.625-10 nM, 1:1 model. The protocol:
(§2) The binding affinity of anti-5T4 bispecific antibody-drug conjugate monospecific and bispecific antibodies to 5T4 was measured by Biacore kinetic experiments using a Protein A sensor chip on Biacore 8K (Cytiva) with HBS-EP+ as running buffer. […] After each binding cycle, the sensor chip was regenerated with glycine solution, pH 1.5. Signals from reference surface and an ensemble of buffer blank injections were subtracted from binding signals to correct for nonspecific binding and injection artifacts. The corrected experimental signals were globally fitted to a 1:1 binding model to extract kinetic constants, including association rate constant (ka), dissociation rate constant (kd), and equilibrium dissociation constant (KD), using the Biacore 8K Evaluation Software.

For assay [4] the target is unchanged. Nature of the assay: SPR (Biacore 8K): antibody captured on a protein A chip, 5T4 protein injected at 0.625-10 nM, 1:1 binding model. On the procedure:
as §2

For assay [5] the target is unchanged. The assay can be described thus: SPR (Biacore 8K): antibody captured on a protein A chip, 5T4 protein injected at 0.625-10 nM, 1:1 binding model; FIG. 4C on D00005 prints the same value as 7.42e-11. The protocol:
as §2

Residue numbers refer to the chain shown, from its start.

Chain of FcγRIIIa (158V) (P08637 17-208 F176V): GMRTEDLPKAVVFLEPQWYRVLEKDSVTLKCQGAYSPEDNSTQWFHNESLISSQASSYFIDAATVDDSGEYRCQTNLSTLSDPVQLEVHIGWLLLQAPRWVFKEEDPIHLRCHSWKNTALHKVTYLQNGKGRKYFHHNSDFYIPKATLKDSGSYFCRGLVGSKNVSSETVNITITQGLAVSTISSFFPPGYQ
Chain of FcγRI (Abcam) (P12314 16-288 limits assumed): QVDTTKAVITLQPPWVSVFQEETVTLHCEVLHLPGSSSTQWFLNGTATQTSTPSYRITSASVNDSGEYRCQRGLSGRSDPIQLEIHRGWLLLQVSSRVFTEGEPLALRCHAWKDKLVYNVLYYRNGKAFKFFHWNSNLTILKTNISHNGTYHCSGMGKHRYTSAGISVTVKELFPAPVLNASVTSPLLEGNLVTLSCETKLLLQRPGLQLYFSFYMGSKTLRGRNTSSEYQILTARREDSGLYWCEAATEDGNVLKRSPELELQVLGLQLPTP

B1: mouse antibody No. 1 ((m)Ab1) (antibody, V domains shown)
VH: EVQLQQSGPDLVKPGASVKISCKASGYSFTDYYMHWVKQSHGKSLEWIGRVSPNNGATNTNQKFKDKAILTVDKSSSTAYMDLRSLTSEDSAVYYCARSTMITSYYFDYWGQGTTLTVSS
VL: SIVMTQTPKFLLVSAGDRITITCKASQSVSTDVAWYQQKPGQSPKLLIYFASDRYTGVPDRFTGSGNGTDFTFTITTVQAEDLAIYFCQQDYSSPPTFGGGTKLEIK
notes: Mouse IgG, captured by anti-mouse IgG antibodies; also called mouse Ab1; mouse monospecific antibody Ab1
For orientation: Kd means the equilibrium constant for the complex coming apart. As usually defined, the koff is the rate constant with which the complex falls apart. In general, kon refers to the rate constant with which the complex forms. On to B1, for which the “epitope binding on 5T4” value in the assay with 5T4 was “non-overlapping epitopes”. Also, the Kd in assay [1] amounted to 1.43 nM. Besides, in assay [2], the koff stood at 0.000421 s⁻¹ and the kon is 259000 M⁻¹ s⁻¹.

B2: humanized antibody No. 1 ((h)Ab1) (antibody, V domains shown)
VH: QVQLVQSGAEVKKPGASVKVSCKASGYSFTDYYMHWVRQAPGQGLEWMGRVSPNNGATNTNQKFKDRVTMTRDTSISTAYMELRSLRSEDTAVYYCARSTMITSYYFDYWGQGTLVTVSS
VL: DIVMTQSPSFLSVSVGDRVTITCKASQSVSTDVAWYQQKPGQAPKLLIYFASDRYTGVPDRFSGSGSGTDFTFTISSLQAEDVAVYYCQQDYSSPPTFGGGTKLEIK
notes: The FcγR assay calls it 'without Fc mutations'; also called humanized Ab1; humanized monospecific antibody Ab1
For B2, the Kd came out at 3.73 nM in the assay with FcγRI (Abcam), 50.5 nM with FcγRIIIa (158V) and 0.198 nM in assay [3]. Moreover, in assay [4], the off-rate constant (koff) is 0.000248 s⁻¹. In assay [4], the association rate constant (kon) stood at 1.25e+06 M⁻¹ s⁻¹.

B3: mouse antibody No. 2 ((m)Ab2) (antibody, V domains shown)
VH: EVKLLESGGGLVQPGGSLKLSCAASGFDFSRYWMTWVRQAPGKGLEWIGEINPDSRTINYTPSLKDKFIISRDNAKNTLYLHMSKVRSEDTALYYCARPDHDYNPYYFNYWGQGTTLTVSS
VL: DIVLTQSPASLAVSLGQRATISCRPSQSVSTSSNSYIHWYQQKPGQPPKLLIKYASNLESGVPARFSGSGSGTDFTLNIHPVEEEDTATYYCQQSWEIPLTFGAGTKLELK
notes: Mouse IgG; also called mouse Ab2; mouse monospecific antibody Ab2
For the molecule B3, in the assay with 5T4, the “epitope binding on 5T4” value was “non-overlapping epitopes”. Moreover, the Kd in assay [1] was determined as 1.34 nM. In assay [2], the koff is 0.000273 s⁻¹ and the kon worked out at 203000 M⁻¹ s⁻¹.

B4: humanized antibody No. 2 ((h)Ab2) (antibody, V domains shown)
VH: EVQLLESGGGLVQPGGSLRLSCAASGFDFSRYWMTWVRQAPGKGLEWVSEINPDSRTINYTPSLKDRFTISRDNAKNTLYLQMNSLRAEDTAVYYCARPDHDYNPYYFNYWGQGTTVTVSS
VL: B3 VL with N78T, H80S, E84A, A104G, L110I
notes: also called humanized Ab2; humanized monospecific antibody Ab2
With B4, the Kd in assay [3] was 0.32 nM. For the same molecule, in assay [4], the koff came to 0.000283 s⁻¹ and the kon came out at 884000 M⁻¹ s⁻¹.

B5: Bs3-HL biparatopic anti-5T4 antibody (Bs3 orientation, scFv in the VH-VL orientation) (bispecific antibody, human IgG1, kappa)
heavy: QVQLVQSGAEVKKPGASVKVSCKASGYSFTDYYMHWVRQAPGQGLEWMGRVSPNNGATNTNQKFKDRVTMTRDTSISTAYMELRSLRSEDTAVYYCARSTMITSYYFDYWGQGTLVTVSSASTKGPSVFPLAPSSKSTSGGTAALGCLVKDYFPEPVTVSWNSGALTSGVHTFPAVLQSSGLYSLSSVVTVPSSSLGTQTYICNVNHKPSNTKVDKRVEPKSCDKTHTCPPCPAPEFLGGPCVFLFPPKPKDTLMISRTPEVTCVVVDVSHEDPEVKFNWYVDGVEVHNAKTKPREEQYNSTYRVVSVLTVLHQDWLNGKEYKCKVSNKALPAPIEKTISKAKGQPREPQVYTLPPSREEMTKNQVSLTCLVKGFYPSDIAVEWESNGQPENNYKTTPPVLDSDGSFFLYSKLTVDKSRWQQGNVFSCSVMHEALHAHYTQKSLSLSPGKGGGGSGGGGSGGGGSEVQLLESGGGLVQPGGSLRLSCAASGFDFSRYWMTWVRQAPGKCLEWVSEINPDSRTINYTPSLKDRFTISRDNAKNTLYLQMNSLRAEDTAVYYCARPDHDYNPYYFNYWGQGTTVTVSSGGGGSGGGGSGGGGSGGGGSDIVLTQSPASLAVSLGQRATISCRPSQSVSTSSNSYIHWYQQKPGQPPKLLIKYASNLESGVPARFSGSGSGTDFTLTISPVEAEDTATYYCQQSWEIPLTFGCGTKLEIK
light: DIVMTQSPSFLSVSVGDRVTITCKASQSVSTDVAWYQQKPGQAPKLLIYFASDRYTGVPDRFSGSGSGTDFTFTISSLQAEDVAVYYCQQDYSSPPTFGGGTKLEIKRTVAAPSVFIFPPSDEQLKSGTASVVCLLNNFYPREAKVQWKVDNALQSGNSQESVTEQDSKDSTYSLSSTLTLSKADYEKHKVYACEVTHQGLSSPVTKSFNRGEC
notes: The heavy chain is Ab1 heavy chain (IgG1), linker, then Ab2 scFv (VH-linker-VL); Bs3-HL is described as the form without FCA, so its real Fc may have L, S and N at those positions; also called bispecific antibody in the Bs3-HL orientation; Bispecific 5T4-BS3 antibody
For the molecule B5, the Kd is 0.742 nM in assay [3], 0.00363 nM in assay [2] and 0.0742 nM in assay [5].

B6: Bs3-HL biparatopic anti-5T4 antibody conjugated to MMAE (Example 4) (bispecific antibody, human IgG1, kappa)
heavy: B5 heavy
light: B5 light
modifications: monomethyl auristatin E (MMAE) conjugated; attachment residues, chain and drug-to-antibody ratio not stated for this experiment
notes: Antibody-drug conjugate of Bs3-HL; also called bispecific antibody in the Bs3-HL orientation conjugated to MMAE; bispecific antibody with conjugated MMAE
B6: in assay [2], the Kd worked out at 0.0159 nM, the koff was 5.99e-06 s⁻¹ and the kon came to 376000 M⁻¹ s⁻¹.
